Measurements reported in the nanobody polyreactivity screen of Harvey et al. (2022).

Assay: yeast display, Sf9 membrane polyspecificity reagent, FACS + sequencing; frameworks hold sequencing errors
Procedure, shortened: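 Using colony PCR, genes from sorted yeast display clones were amplified, then sequenced on MiSeq at 2 × 250 and filtered by CDR length. The clones had been stained with 10% biotinylated, detergent-solubilized Sf9 membrane reagent for 1 hour at 4 °C and sorted by FACS into low and high (top ~1%) gates on anti-HA and streptavidin fluorescence. Polyreactivity labels come from the gate of origin.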

Row | Sequence | polyreactivity (PSR sort gate)
1 | QVQLGESGGGLVQAGGSLRLSCAASGSIFGLYAMGWYRQAPGKERELVATITSGSSTTYADSVKGRFTISRDNAKNTVYLQMNSLKPEVTAVYYCGVDDLYGFDYWGQGTQVTVSS | low polyreactivity
2 | QVQLGESGGGLVQAGGSLRLSCAASGSIFQPYAMGWYRQAPGKEREFVAAISRSGGMTYYADSVKGRFTISRDNEKNTVYLQMNSLKPEDTAVYYCATGRQVVRSYSEGDYSGQGTQVTVSS | low polyreactivity
3 | QVQLGESGGGLVQAGGSLRLSCAASGSIFSKYAKGSYRQAPGKERELVAAITMNGGSTYYADSVKGRFTISRDNAKNTVYFQMNSLKPEDTAVYYCSKSERPWWGYYYQFDYWGQGTQVTVSS | low polyreactivity
4 | QVQLGESGGGLVQAGGSLRLSCAASGSTFAPYAMGWYRQAPGKERELVAAISTGGSTNYADSVKGRFTISRDNAMNTVYFQMNSLKPEDTAVYYCNTGYFVWGFDYWGQGTQVTVSS | low polyreactivity
5 | QVQLGESGGGLVQAGGSLRLSCAASGSTFAYNDMGWYRQAPGKEMELVADIRSGGNTKYADSVKGRFTISRDNAKNTVYFQMNSLKPEDTAVYYCATDGYRIDVYHPDYRYDYWGQGTQVTVSS | low polyreactivity
6 | QVQLGESGGGLVQAGGSLRLSCAASGSTFGFYAMGWYRQAPGKERELVAAISGRGGSTYYADSVKGRFTISRDNAKNTVYLQMNSLKPEDTAVYYCAKEFKYWGYPYDYWGQGTQVTVSS | low polyreactivity
7 | QVQLGESGGGLVQAGGSLRLSCAASGSTFNLYAMGWYRQAPGKERELVAAISFSGGSTYYADSVKGRFTISRDNAKNTVYLQMNSLKPEDTAVYYCAAVESSYEAWDTYYYWGQGTQVTVSS | low polyreactivity
8 | QVQLGESGGGLVQAGGSLRLSCAPSGSTFNRFARGWYILAPGNVRELVAAISRSGGSTYYADSVKGRFTISRDNPKTTLYLQMNSLKPEDTAVYYCAADRTGHGFGYWGQGTQVTVSS | high polyreactivity
9 | QVQLGESGGGLVQAGGSVRLICAASGGIFEWNAMGWYRQAPGKERELDAAISNTGGSTSYADSVKGRFTISRDNAMNSVYLQMNCLKPEDTAVYYCNRFPPRRYYARYYSWGQGTQVTVSS | high polyreactivity
10 | QVQLGESGGGLVQAGGTLRLTCAASGSIFNGNAMGGSRQAPGKERELVAAISRNGGSTYYAVSVKGRFTISRDNAKNTVYLQMNSQKPEDTAVYYCDTDLTVYYSYYWMYWGQGTQVTVSS | low polyreactivity
11 | QVQLGESGGGLVQAVGSLRLSCAASGSTFRGNAMGWYRQAPAKARELVAANTSDGSTSYADSVKGRFTISRDNAKNTVYLQMNSLKPEDTAVYYSNADYHQSIWEAVDFEYDYWGQGTQVTVSS | low polyreactivity
12 | QVQLGESGVGLVQAGGSLRLSCASSGRTLPVNAMGWYRQAPGKERELVAGISWGGDSTYYADSVKGRFTISRDNAKNSVYLQMNSLKPEDTAVYYCAASSSTWPGDFWGQGTQVTVSS | low polyreactivity
13 | QVQLGESRGGLVQAGGSLRLSCAASGIIFTFNAMVWYSQAPGKERELVAGISQGGSSTNYADSVKGRFTISRDNAKNTVDLQRNSLKREVTAVYYCAAYVDIVGDYWVVGYYYWGQGTQVTVSS | low polyreactivity
14 | QVQLHESGGGLLQAGGGLRLSCAASGSISSTGFMGWYRQAPGKEREPVAAIAPGTTTYYADSVKGRFTISRDNAKNTVYLQMNSLRPEDTAVYYCAVFTDNRVAFLYWGQGTQVTVSS | low polyreactivity
15 | QVQLHESGGGLVHACGSLRPSCAASGSISDSWTMSWYRQAPGKEREFVAGITWGGTTNYADSVKRRFTISRDNAKNNVFLQMNSLKPEDTAVYYCAAVSYYGVDQYRITVYTYEYWGQGTQVTVSS | low polyreactivity
16 | QVQLHESGGGLVQAGGGLRLSCAASGSISSTGFMGWYRQAPGKEREPVAAIAQGTTTYYAESVKGRFTISRDNAINTVYLQMNSLRPEDTAVYYCAVFTDNRVAFLYWGQGTQVTVRS | low polyreactivity
17 | QVQLHESGGGLVQAGGGLRLSCASSGSISSTGFMGWYRQAPGKEREPVAAIAPGTTTYYADSVKGRFTIRRDNAKNTVYLQMNSLRPEDTAVYYCAVFTDNRVAFLYWGQGTQVTVSS | low polyreactivity
18 | QVQLHESGGGLVQAGGSLRLSCAAIGTISYSGPMGWYRQAPGKEREFVAGIGVGSNTNYADSVKGRYTIIRDNAKNTVYLQMNSLKPEDSAVYYCAVGGYAPLGRPYWGQGTQVTVSS | low polyreactivity
19 | QVQLHESGGGLVQAGGSLRLSCAASGTISYAGPMGWSRQAPGKEREFVAGIGVGSNTNYADSVKGRYTIIRANAKNTVALQMTCLKPEDTAVYYCAVGGYAPLGRPYWGQGTHVTVSS | low polyreactivity
20 | QVQLHESGGGLVQAGGSLRLSCAASGTISYAGPMGWYRQAPGKEREFVAGIGVGSNTNYADRVKGRYTIIRDNAKNTEYLQRNSLKPEDTALYYCAVGGYAPLGRPYWGQGTQVTVSS | low polyreactivity
21 | QVQLHESGGGLVQAGGSLRLSCAASGTISYAGPMGWYRQAPGKEREVVAGIGVGSNTIYADSVKGRYTIIRDNAKKTVYLQMKSLKPEDTEVYYCAVGGYAPLGRPYWGQGTQVTVSS | low polyreactivity
22 | QVQLHESGGGLVQAGGSLRLSCAASGTISYAGPMGWYRQAPGTEREFVAGIGVGSNTNYADSVKGRYTIIRDNAKNTVYLQMNSLKPEDTAVYYCAVGGYAPLGRPYWGQGTQVTVSS | low polyreactivity

Row | Sequence | polyreactivity (PSR sort gate)
23 | QVQLHESGGGLVQAGGSLRRSCAPSGTISYAGPMGWYRQAPGKEREFVAGIGVGSNTNYADSVKGRYTIIRDNAKNTVYLQMNSLKPEDTAVYYCAVGGYAPLGRPYWGQGTQVTVSS | low polyreactivity
24 | QVQLIESGGGIVQAGGSLRLSSAASGIIFDWYTMGWYRQATGKERELVAAISWRGGRTYYADSVKGRFTISRDNAKNTVYLQMNSLKAVDTGVYYCAAEAPVQPFYVFNSGIYDLDYWGQGTHVTVSS | low polyreactivity
25 | QVQLIESGGGLVQAGGSLRLSCAASGRTFRYNAMGWYRQAPGKERELVAGISTGGSTYYADSVKGRFTISRDNAKNTVYLQMNSLKPEDTAVYYCARYYHARPNGPRSDDYDYWGQGTQVTVSS | low polyreactivity
26 | QVQLLDAGGGLDQAGGSLRLRCAASGSIFRYYPMGWYRQAPGKQREMVASISWSGTSTYYADSVKGRFTISRDNAKNTVYLPRNSLKPEDTAVYYCNKDRWGRYYTRYDYWGQGTQVTVSS | high polyreactivity
27 | QVQLLDSGGGLVQAGGSLRLSCAASGSTIAYYDMGWYRQAPGKERELVAAISWSGGSTYYADSVKGRFTISRENAKKTVYLQMNSLKPEDTAVYYCNRLLGYFTDSSGSPMGYWGQGTQVTVSS | high polyreactivity
28 | QVQLLESGGCLGLAGASLRLSCAASGSTFSTYAMGWYRPAPGKERELVAAITRRGGRTYYADSVKGRFTISRDNAKNTVYLQMNCLKPEDTAVYSCNVLSGLFVQAEYDYWGQGTKVTVSS | high polyreactivity
29 | QVQLLESGGGIVQEGGSLRLSCAASGRIFSPYAMGWYRQAPGKERELVAAITWSGVSTYYADSVKGRFTLSRDNAKNSVYFQMNSLKPEDTAVYYSAVDPRGHEGVRYNYWVQGTQVTVSS | low polyreactivity
30 | QVQLLESGGGLFQAGGSLRLICAASGRIFDENAMGWYRQAPRKDREMVAAISWSGGITYYADSVKGRFTISRDYAKNNVYLQMNSLKPEDTAVYYCAADIFQGYTFYQGYPGGAGYWGQGTQVTVSS | low polyreactivity
31 | QVQLLESGGGLVKAGGSLRLSCPASGIIFYEYVMGWYRQAPGKERELVAAINRSGGSKYYADSVKGRFTISRDNAKNTVYLQMNSLKPEDTAVYYCAAKPYYFYGMDYWGQGTQVTVSS | high polyreactivity
32 | QVQLLESGGGLVLAGGRIRLSCAASGRTYRYTMGWNRQSPGKERELVAAISRSGGSTYYADSVKGRFTISRDNAKNSFYLQMNSLKPEDTAVYYCAKVIYRYNETYDYWGQGTQVTVSS | high polyreactivity
33 | QVQLLESGGGLVQAGGSLPVSCAASGSTFDTNDMVWYRQAPGKERELVAAISSGGDYADSVKGRFTISRDNAKNTVYLQMNSLKPEDTAVYYCAKDDTKWGQGTQVTVSS | low polyreactivity
34 | QVQLLESGGGLVQAGGSLRISCAASGFIFDYYMGWYRQAPGKERELVARISYTGGSTYYADSVKGRFTISRDNAKNTVYLQMNSLKPEDTAVYYCATRGAEAERFASYEFDYWGQGTQVTVSS | low polyreactivity
35 | QVQLLESGGGLVQAGGSLRLRCAASGTIFRISYMGSYRHAPGKEREFVAAITYCANTYYADSGKGRFTISRDNAKKTVYLHMNSLKPEDTAVYYCAVPPVKETFLDYWGQGTQVTVSS | low polyreactivity
36 | QVQLLESGGGLVQAGGSLRLRCASSGRIFVYYAMGWYRQAPGKERELVAANRWTGGSTYYADSVKGRFTISRDNAKNTVYLQMNSLKPEDTAVYYCATVNRYGHFNYWGQGTQVTVSS | high polyreactivity
37 | QVQLLESGGGLVQAGGSLRLSCAASGFSFEYYAMGWSRQAPGKDRELVAAIRSVSGTNYADSVKGRFTISRDNAKNTVYLQMNSQKPEDTAVYYCAKLRYPYLFLDDSEYWGQRTQVTVSS | low polyreactivity
38 | QVQLLESGGGLVQAGGSLRLSCAASGFTFKRNAKGWYRQAPGKEREFVAAITSSGGSTYYADSVKGRFTISRDNAKNTVYLQMNSLKPEDTAVYYCAARSKGAYPTRPLPGGYGYWGQGTQVTVSS | high polyreactivity
39 | QVQLLESGGGLVQAGGSLRLSCAASGFTFWYYAMVWYRQAPGKERELVAAITRGGSTNYADSVKGRFTISRDNAKNTVYLQMNSLKPEDTAVYYCAATIYDYNRAGKYYYWGQGTQVTVSS | high polyreactivity
40 | QVQLLESGGGLVQAGGSLRLSCAASGIIFGYYAMGWYRQAPGKERELVAAITWSGGSTYYADSVKGRFTISRDNAKNTVYLQMNSLKPEDTAVYYCNADDDGRVSSTIVEYWVQGTQVTVSS | low polyreactivity
41 | QVQLLESGGGLVQAGGSLRLSCAASGITFLLNAMGWYRQAPGKERELVAAISRSGGRTYYADSVKGRFTISRDNAKNTVYLQMNSLKPEDTAVYYCAVVTQFGDGYYWGQGTQVTVSS | high polyreactivity
42 | QVQLLESGGGLVQAGGSLRLSCAASGLIFRSYAMGWYRQAPGKERELVARISIRGGSTYYADSVKGRFTISRDNAKNTVYLQMNCLKPEDTAVYYCAAVGYFGGYRYDYWGQGTQVTVSS | high polyreactivity
43 | QVQLLESGGGLVQAGGSLRLSCAASGNIFQVNAMGWYRQAPGKERELVASISRRGGSTNYADSVKGRFTISRDNAKNTVYLQMNSLKPEDTAVYYCAAVARRGSYLGQRLDYWGQGTQVTVSS | high polyreactivity
